In PMC5655499, “Peptide array-based screening reveals a large number of proteins interacting with the ankyrin-repeat domain of the zDHHC17 S-acyltransferase” (The Journal of Biological Chemistry, 2017):

B1: CSPα 15-mer peptide (wild type) containing the zDABM [not stated] / His6-tagged AR domain (residues 51–288) of zDHHC17 [human] (parent)
chain 1: THIDDYSTWDIVKATQYGIYERCRELVEAGYDVRQPDKENVTLLHWAAINNRIDLVKYYISKGAIVDQLGGDLNSTPLHWATRQGHLSMVVQLMKYGADPSLIDGEGCSCIHLAAQFGHTSIVAYLIAKGQDVDMMDQNGMTPLMWAAYRTHSVDPTRLLLTFNVSVNLGDKYHKNTALHWAVLAGNTTVISLLLEAGANVDAQNIKGESALDLAKQRKNVWMINHLQEARQAKGYDN
chain 2: TDTPIVIQPASATET
B2: SNAP25 15-mer peptide (wild type) containing the zDABM [not stated] / His6-tagged AR domain (residues 51–288) of zDHHC17 [human] (parent)
chain 1: B1 chain 1
chain 2: QDGVVASQPARVVDE

Variants of: B1
Assay: far-Western blotting on peptide array
Details: with His6-tagged AR domain (residues 51–288) of zDHHC17 [human]; ARzD17-His 500 nm in PBS-T, overnight, 4 °C
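Note: PSSM score: binding signal versus wild type scaled to sum 1 per position.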

Screen value, < 0.005:
chain 2 TDTPGVIQPASATET [chain 2 I5G]
chain 2 TDTPYVIQPASATET [chain 2 I5Y]
chain 2 TDTPDVIQPASATET [chain 2 I5D]
chain 2 TDTPHVIQPASATET [chain 2 I5H]
chain 2 TDTPNVIQPASATET [chain 2 I5N]
chain 2 TDTPIVIQYASATET [chain 2 P9Y]
chain 2 TDTPIVPQPASATET [chain 2 I7P]
chain 2 TDTLIVIQPASATET [chain 2 P4L]
chain 2 TDTQIVIQPASATET [chain 2 P4Q]
chain 2 TDTFIVIQPASATET [chain 2 P4F]
chain 2 TDTSIVIQPASATET [chain 2 P4S]
chain 2 TDTPIVIWPASATET [chain 2 Q8W]
chain 2 TDTPIVINPASATET [chain 2 Q8N]
chain 2 TDTPIVIQPADATET [chain 2 S11D]
chain 2 TDTPIVIQPAEATET [chain 2 S11E]
chain 2 TDTPIGIQPASATET [chain 2 V6G]

Variants of: B2
Assay: far-Western blotting on peptide array
Details: with His6-tagged AR domain (residues 51–288) of zDHHC17 [human]; ARzD17-His 500 nm in PBS-T, overnight, 4 °C

Screen value, < 0.005:
chain 2 QDGYVASQPARVVDE [chain 2 V4Y]
chain 2 QDGAVASQPARVVDE [chain 2 V4A]
chain 2 QDGDVASQPARVVDE [chain 2 V4D]
chain 2 QDGSVASQPARVVDE [chain 2 V4S]
chain 2 QDGLVASQPARVVDE [chain 2 V4L]
chain 2 QDGKVASQPARVVDE [chain 2 V4K]
chain 2 QDGQVASQPARVVDE [chain 2 V4Q]
chain 2 QDGEVASQPARVVDE [chain 2 V4E]
chain 2 QDGNVASQPARVVDE [chain 2 V4N]
chain 2 QDGWVASQPARVVDE [chain 2 V4W]
chain 2 QDGTVASQPARVVDE [chain 2 V4T]
chain 2 QDGHVASQPARVVDE [chain 2 V4H]
chain 2 QDGMVASQPARVVDE [chain 2 V4M]
chain 2 QDGRVASQPARVVDE [chain 2 V4R]
chain 2 QDGGVASQPARVVDE [chain 2 V4G]
chain 2 QDGFVASQPARVVDE [chain 2 V4F]
chain 2 QDGVVAGQPARVVDE [chain 2 S7G]
chain 2 QDGVVAPQPARVVDE [chain 2 S7P]
chain 2 QDGVVASQPAREVDE [chain 2 V12E]
chain 2 QDGVVASQPARDVDE [chain 2 V12D]
chain 2 QDGVVASQPDRVVDE [chain 2 A10D]
chain 2 QDGVVASQPAEVVDE [chain 2 R11E]
chain 2 QDGVVASQPANVVDE [chain 2 R11N]
chain 2 QDGVVASQPALVVDE [chain 2 R11L]
chain 2 QDGVVASQPATVVDE [chain 2 R11T]
chain 2 QDGVVASQPAMVVDE [chain 2 R11M]
chain 2 QDGVVASQPAFVVDE [chain 2 R11F]
chain 2 QDGVVASQPAIVVDE [chain 2 R11I]
chain 2 QDGVVASQPAYVVDE [chain 2 R11Y]
chain 2 QDGVVASQPAQVVDE [chain 2 R11Q]
chain 2 QDGVVASQPADVVDE [chain 2 R11D]
chain 2 QDGVVASQPAVVVDE [chain 2 R11V]
chain 2 QDGVTASQPARVVDE [chain 2 V5T]
chain 2 QDGVSASQPARVVDE [chain 2 V5S]
chain 2 QDGVWASQPARVVDE [chain 2 V5W]
chain 2 QDGVAASQPARVVDE [chain 2 V5A]
chain 2 QDGVPASQPARVVDE [chain 2 V5P]
chain 2 QDGVQASQPARVVDE [chain 2 V5Q]
chain 2 QDGVDASQPARVVDE [chain 2 V5D]
chain 2 QDGVYASQPARVVDE [chain 2 V5Y]
chain 2 QDGVGASQPARVVDE [chain 2 V5G]
chain 2 QDGVKASQPARVVDE [chain 2 V5K]
chain 2 QDGVLASQPARVVDE [chain 2 V5L]
chain 2 QDGVHASQPARVVDE [chain 2 V5H]
chain 2 QDGVEASQPARVVDE [chain 2 V5E]
chain 2 QDGVNASQPARVVDE [chain 2 V5N]
chain 2 QDGVMASQPARVVDE [chain 2 V5M]
chain 2 QDGVVASQQARVVDE [chain 2 P9Q]
chain 2 QDGVVASQLARVVDE [chain 2 P9L]
chain 2 QDGVVASQTARVVDE [chain 2 P9T]
chain 2 QDGVVASQCARVVDE [chain 2 P9C]
chain 2 QDGVVASQFARVVDE [chain 2 P9F]
chain 2 QDGVVASQMARVVDE [chain 2 P9M]
chain 2 QDGVVASQHARVVDE [chain 2 P9H]
chain 2 QDGVVASQAARVVDE [chain 2 P9A]
chain 2 QDGVVASQYARVVDE [chain 2 P9Y]
chain 2 QDGVVASQKARVVDE [chain 2 P9K]
chain 2 QDGVVASQNARVVDE [chain 2 P9N]
chain 2 QDGVVASQRARVVDE [chain 2 P9R]
chain 2 QDGVVASQDARVVDE [chain 2 P9D]
chain 2 QDGVVASQWARVVDE [chain 2 P9W]
chain 2 QDGVVASQEARVVDE [chain 2 P9E]
chain 2 QDGVVASQSARVVDE [chain 2 P9S]
chain 2 QDGVVASQGARVVDE [chain 2 P9G]
chain 2 QDGVVASQVARVVDE [chain 2 P9V]
chain 2 QDGVVASTPARVVDE [chain 2 Q8T]
chain 2 QDGVVASFPARVVDE [chain 2 Q8F]
chain 2 QDGVVASPPARVVDE [chain 2 Q8P]
chain 2 QDGVVASVPARVVDE [chain 2 Q8V]
chain 2 QDGVVASSPARVVDE [chain 2 Q8S]
chain 2 QDGVVASYPARVVDE [chain 2 Q8Y]
chain 2 QDGVVASWPARVVDE [chain 2 Q8W]
chain 2 QDGVVASAPARVVDE [chain 2 Q8A]
chain 2 QDGVVASEPARVVDE [chain 2 Q8E]
chain 2 QDGVVASHPARVVDE [chain 2 Q8H]
chain 2 QDGVVASIPARVVDE [chain 2 Q8I]
chain 2 QDGVVASNPARVVDE [chain 2 Q8N]
chain 2 QDGVVASDPARVVDE [chain 2 Q8D]
chain 2 QDGVVASGPARVVDE [chain 2 Q8G]
chain 2 QDGVVPSQPARVVDE [chain 2 A6P]
chain 2 QDGVVGSQPARVVDE [chain 2 A6G]
